Drawing on paper PMC8578495, this text covers expression_or_secretion for 4 substances.

Where two headings read alike, the source gives them in different places.

In the case of Mps1: K86R, the expression_or_secretion result (ubiquitination at K86) is reported as “increases”.

For Mps1: K827R, the expression_or_secretion result (ubiquitination at K827) was “increases”. Consider Mps1: K848R, for which the expression_or_secretion result (ubiquitination at K848) is “increases”. For the substance Mps1: RRR (K86R, K827R, K848R), the expression_or_secretion result runs as follows: (ubiquitination at K86) “increases”; (ubiquitination at K827) “increases”; (ubiquitination at K848) “increases”.
